The labels stand for the following.
B1: mouse GITRL expressed on cells (ligand)
chain: MEEMPLRESSPQRAERCKKSWLLCIVALLLMLLCSLGTLIYTSLKPTAIESCMVKFELSSSKWHMTSPKPHCVNTTSDGKLKILQSGTYLIYGQVIPVDKKYIKDNAPFVVQIYKKNDVLQTLMNDFQILPIGGVYELHAGDNIYLKFNSKDHIQKNNTYWGIILMPDLPFIS
B2: mouse GITR (glucocorticoid-induced TNF receptor) (receptor, UniProt O35714 20-228, looked up)
chain: QPSVVEEPGCGPGKVQNGSGNNTRCCSLYAPGKEDCPKERCICVTPEYHCGDPQCKICKHYPCQPGQRVESQGDIVFGFRCVACAMGTFSAGRDGHCRLWTNCSQFGFLTMFPGNKTHNAVCIPEPLPTEQYGHLTVIFLVMAACIFFLTTVQLGLHIWQLRRQHMCPRETQPFAEVQLSAEDACSFQFPEEERGEQTEEKCHLGGRWP
notes: whole, on cells; endogenous on mouse T cells and HT-2 cells in the functional assays; also called cell-surface GITR

Assay [1] addresses mouse GITRL expressed on cells (mouse) (UniProt Q7TS55). As to the kind of experiment: flow cytometry on GITRL-Cos cells, FITC donkey antihuman antibody. On the technique in general: Flow cytometry measures light scatter and fluorescence of single cells or particles in a stream.
Assay [2] deals with B2. As to the kind of experiment: cell-based or functional assay.
Assay [3] concerns the target T1, control mouse IL-21 receptor fused to the FLAG epitope, expressed on Cos cells (mouse, UniProt Q9JHX3 20-529).
T1 construct: whole, on cells; also called IL-21R-Flag-Cos
Briefly: cell-cell binding by flow cytometry (PE anti-FLAG / FITC anti-GITR). The source says: Cell-cell interaction was detected by flow cytometry using phycoerythrin-labeled anti-Flag antibody (PE-FLAG) and fluorescein isothiocyanate (FITC)-labeled anti-GITR.

T1 sequence (Q9JHX3 20-529): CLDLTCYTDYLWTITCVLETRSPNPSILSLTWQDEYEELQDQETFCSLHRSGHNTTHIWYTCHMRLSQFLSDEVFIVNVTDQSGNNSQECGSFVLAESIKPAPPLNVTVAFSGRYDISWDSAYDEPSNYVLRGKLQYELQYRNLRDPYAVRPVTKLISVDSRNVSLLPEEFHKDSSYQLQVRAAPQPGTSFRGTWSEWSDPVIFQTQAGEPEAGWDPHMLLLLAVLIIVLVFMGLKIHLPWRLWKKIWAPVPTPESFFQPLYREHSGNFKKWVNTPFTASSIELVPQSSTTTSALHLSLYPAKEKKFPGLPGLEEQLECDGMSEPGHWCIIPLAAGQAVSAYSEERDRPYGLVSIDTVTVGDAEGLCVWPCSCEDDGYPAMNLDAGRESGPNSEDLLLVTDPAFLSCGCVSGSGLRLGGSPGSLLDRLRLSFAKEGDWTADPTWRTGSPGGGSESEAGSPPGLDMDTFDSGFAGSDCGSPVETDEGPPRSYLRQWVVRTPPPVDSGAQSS

The molecule control human IgG (antibody) gave an FITC-Ab binding in assay [1] of 7.9%.

Consider “recombinant GITR fused to the Fc portion of human IgG (Fc fusion)”, for which, in assay [1], the FITC-Ab binding stood at 28.8% and the fold increase in FITC-Ab binding compared to control HIgG worked out at 3.6 fold.

On to B1, for which the “^3H-thymidine incorporation of CD4^+CD25^+ T cells, fold increase over unmodified YB2/0 cells (˜50,000 cells)” value in assay [2] was around 15 fold.

As to B2, in assay [3], the binding result is on record as “no binding”.
